We go through 3 molecules from US20250388669A1 (published 2025).

Test [1] concerns the target CD40 (UniProt P25942 21-193, limits assumed). Description: FCM or ELISA, graded. (In an ELISA, binding on a coated surface is turned into a signal by an enzyme label.)
The target in test [2] is PD-L1 (binding assay) (UniProt Q9NZQ7 19-238, limits assumed). Nature of the test: FCM or ELISA, graded.
Test [3] deals with T1, PD-L1 (human, UniProt Q9NZQ7 19-238, limits assumed).
T1 construct: In the reporter assay it is on Raji cells expressing human PD-L1
Nature of the test: PD-L1 binding, FCM or ELISA.

Sequence of PD-L1 (binding assay) (Q9NZQ7 19-238 limits assumed): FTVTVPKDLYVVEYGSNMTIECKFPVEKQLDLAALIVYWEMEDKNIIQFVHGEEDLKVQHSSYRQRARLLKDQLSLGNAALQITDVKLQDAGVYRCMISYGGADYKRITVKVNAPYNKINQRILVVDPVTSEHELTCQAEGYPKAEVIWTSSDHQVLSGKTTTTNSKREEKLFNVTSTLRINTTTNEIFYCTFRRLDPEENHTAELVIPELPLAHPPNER
Sequence of CD40 (P25942 21-193 limits assumed): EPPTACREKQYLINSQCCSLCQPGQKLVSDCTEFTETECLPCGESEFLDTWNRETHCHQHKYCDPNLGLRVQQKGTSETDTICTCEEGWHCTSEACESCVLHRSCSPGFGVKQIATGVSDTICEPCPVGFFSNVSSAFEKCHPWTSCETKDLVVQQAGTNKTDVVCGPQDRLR
T1 sequence (Q9NZQ7 19-238 limits assumed): as the sequence (Q9NZQ7 19-238 limits assumed) above

B1: Ly2438 (bispecific antibody)
heavy 1: QVQLVQSGAEVKKPGASVKVSCKASGYTFTDFWMSWVRQAPGQGLEWMGQIYPNTGTTHSNEKFKGRVTMTRDTSTSTVYMELSSLRSEDTAVYYCARSYHISTTPNWFAYWGQGTLVTVSSASTKGPSVFPLAPSSKSTSGGTAALGCLVKDYFPEPVTVSWNSGALTSGVHTFPAVLQSSGLYSLSSVVTVPSSSLGTQTYICNVNHKPSNTKVDKKVEPKSCGGGGSGGGGSGGGGSGGGGSEVQLVESGGGLVQPGGSLRLSCAASGFTFTNYGLHWVRQAPGKGLEWVSSISPSGGVTYYRDSVKGRFTISRDNSKNTLYLQMNSLRAEDTAVYYCAKPFLGWGGANWIAHWGQGTLVTVSSGGGGSDKTHTCPPCPAPEAAGPSVFLFPPKPKDTLMISRTPEVTCVVVDVSHEDPEVKFNWYVDGVEVHNAKTKPREEQYNSTYRVVSVLTVLHQDWLNGKEYKCKVSNKALPAPIEKTISKAKGQPREPQVYTLPPSREEMTKNQVSLWCLVKGFYPSDIAVEWESNGQPENNYKTTPPVLDSDGSFFLYSKLTVDKSRWQQGNVFSCSVMHEALHNHYTQKSLSLSPG
heavy 2: QVQLVQSGAEVKKPGASVKVSCKASGYTFTDFWMSWVRQAPGQGLEWMGQIYPNTGTTHSNEKFKGRVTMTRDTSTSTVYMELSSLRSEDTAVYYCARSYHISTTPNWFAYWGQGTLVTVSSASTKGPSVFPLAPSSKSTSGGTAALGCLVKDYFPEPVTVSWNSGALTSGVHTFPAVLQSSGLYSLSSVVTVPSSSLGTQTYICNVNHKPSNTKVDKKVEPKSCGGGGSGGGGSGGGGSGGGGSDIQMTQSPSSLSASVGDRVTITCLASEDISNDLAWYQQKPGKAPKLLIYFVDRLLDGVPSRFSGSGSGTDFTLTISSLQPEDFATYYCQQSYKYPPTFGQGTKLEIKGGGGSDKTHTCPPCPAPEAAGPSVFLFPPKPKDTLMISRTPEVTCVVVDVSHEDPEVKFNWYVDGVEVHNAKTKPREEQYNSTYRVVSVLTVLHQDWLNGKEYKCKVSNKALPAPIEKTISKAKGQPREPQVYTLPPSREEMTKNQVSLSCAVKGFYPSDIAVEWESNGQPENNYKTTPPVLDSDGSFFLVSKLTVDKSRWQQGNVFSCSVMHEALHNRFTQKSLSLSPG
light: DIQMTQSPSSLSASVGDRVTITCKASQNVYKKLEWYQQKPGKVPKVLIYHTNILQTGVPSRFSGSGSGTDYTLTISSLQPEDVATYYCYQWNSGPTFGGGTKVEIKRTVAAPSVFIFPPSDEQLKSGTASVVCLLNNFYPREAKVQWKVDNALQSGNSQESVTEQDSKDSTYSLSSTLTLSKADYEKHKVYACEVTHQGLSSPVTKSFNRGEC
notes: PD-L1 Fabs (Ly076) x central CD40 Fv (TM559)
Regarding B1, the binding result in test [1] and in test [2] was “binds” throughout.

B2: Ly2444 (bispecific antibody, human IgG1, kappa)
heavy 1: QVQLVQSGAEVKKPGASVKVSCKASGYTFTDFWMSWVRQAPGQGLEWMGQIYPNTGTTHSNEKFKGRVTMTRDTSTSTVYMELSSLRSEDTAVYYCARSYHISTTPNWFAYWGQGTLVTVSSASTKGPSVFPLAPSSKSTSGGTAALGCLVKDYFPEPVTVSWNSGALTSGVHTFPAVLQSSGLYSLSSVVTVPSSSLGTQTYICNVNHKPSNTKVDKKVEPKSCDKTHTCPPCPAPEAAGPSVFLFPPKPKDTLMISRTPEVTCVVVDVSHEDPEVKFNWYVDGVEVHNAKTKPREEQYNSTYRVVSVLTVLHQDWLNGKEYKCKVSNKALPAPIEKTISKAKGQPREPQVYTLPPSREEMTKNQVSLWCLVKGFYPSDIAVEWESNGQPENNYKTTPPVLDSDGSFFLYSKLTVDKSRWQQGNVFSCSVMHEALHNHYTQKSLSLSPGGGGGSGGGGSGGGGSGGGGSEVQLVESGGGLVQPGGSLRLSCAASGFTFTNYGLHWVRQAPGKGLEWVSSISPSGGVTYYRDSVKGRFTISRDNSKNTLYLQMNSLRAEDTAVYYCAKPFLGWGGANWIAHWGQGTLVTVSS
heavy 2: QVQLVQSGAEVKKPGASVKVSCKASGYTFTDFWMSWVRQAPGQGLEWMGQIYPNTGTTHSNEKFKGRVTMTRDTSTSTVYMELSSLRSEDTAVYYCARSYHISTTPNWFAYWGQGTLVTVSSASTKGPSVFPLAPSSKSTSGGTAALGCLVKDYFPEPVTVSWNSGALTSGVHTFPAVLQSSGLYSLSSVVTVPSSSLGTQTYICNVNHKPSNTKVDKKVEPKSCDKTHTCPPCPAPEAAGPSVFLFPPKPKDTLMISRTPEVTCVVVDVSHEDPEVKFNWYVDGVEVHNAKTKPREEQYNSTYRVVSVLTVLHQDWLNGKEYKCKVSNKALPAPIEKTISKAKGQPREPQVYTLPPSREEMTKNQVSLSCAVKGFYPSDIAVEWESNGQPENNYKTTPPVLDSDGSFFLVSKLTVDKSRWQQGNVFSCSVMHEALHNRFTQKSLSLSPGGGGGSGGGGSGGGGSGGGGSDIQMTQSPSSLSASVGDRVTITCLASEDISNDLAWYQQKPGKAPKLLIYFVDRLLDGVPSRFSGSGSGTDFTLTISSLQPEDFATYYCQQSYKYPPTFGQGTKLEIK
light: DIQMTQSPSSLSASVGDRVTITCKASQNVYKKLEWYQQKPGKVPKVLIYHTNILQTGVPSRFSGSGSGTDYTLTISSLQPEDVATYYCYQWNSGPTFGGGTKVEIKRTVAAPSVFIFPPSDEQLKSGTASVVCLLNNFYPREAKVQWKVDNALQSGNSQESVTEQDSKDSTYSLSSTLTLSKADYEKHKVYACEVTHQGLSSPVTKSFNRGEC
notes: PD-L1 Fabs (Ly076) x terminal CD40 Fv (TM559)
For B2, the binding result in test [1] and in test [2] was “binds” in each case.

B3: Ly076 (antibody, V domains shown)
VH: QVQLVQSGAEVKKPGASVKVSCKASGYTFTDFWMSWVRQAPGQGLEWMGQIYPNTGTTHSNEKFKGRVTMTRDTSTSTVYMELSSLRSEDTAVYYCARSYHISTTPNWFAYWGQGTLVTVSS
VL: DIQMTQSPSSLSASVGDRVTITCKASQNVYKKLEWYQQKPGKVPKVLIYHTNILQTGVPSRFSGSGSGTDYTLTISSLQPEDVATYYCYQWNSGPTFGGGTKVEIK
notes: Parent mAb; also called Anti-PD-L1 Ly076; parent anti-PD-L1 antibody
For B3, the binding result in test [3] is “binds”.
